Laboratory results reported in patent US20070269440A1, “Stimulators of osteoblastogenesis and applications of the same” (Board of Trustees of the University of Arkansas, priority 2006, published 2007).

Key:
[1] = system: distracted tibia of 21-month-old C57BL6 mice; assay: Distraction osteogenesis in aged mice, new bone in DO gap by histology; assay type: in vivo, mouse; conditions: 21-month old mice, sTNF-RI 8.0 mg/kg s.c. every other day, 3-day latency, 14 days of distraction; control 31.2±12.4%, p<0.009
Excerpt: After radiography, the distracted tibiae were decalcified in 5% formic acid. The specimens were paraffin-embedded and cut into 5-7 micron longitudinal (coronal) sections on a microtome (Leitz 1512, Wetzlar, Germany) for staining (hematoxylin & eosin). The sections chosen for analysis were selected to represent a central or near central gap location. This was accomplished by choosing slides that contained all four full thickness cortices with intact marrow spaces on both the proximal and distal ends of the distraction gap. All organized osteoid/sinusoid columns were defined as new bone. We defined periosteal new bone as that outside of each cortex and endosteal new bone as that within the cortices. […] The distraction gap area was outlined from the outside corners of the two proximal and the two distal cortices forming a quadrilateral region of interest, and the area of that region (gap area) was recorded. Both the proximal and distal endosteal new bone matrix, which is easily distinguished from the central fibrous tissue at the PMF, was outlined and the area recorded (new bone area). The percentage of new bone within the distraction gap was calculated by dividing new bone area/gap area (8, 9-11). […]

[2] = system: distracted tibia of 21-month-old C57BL6 mice; assay: Distraction osteogenesis in aged mice, new bone in DO gap by single-beam radiography; assay type: in vivo, mouse; conditions: 21-month old mice, sTNF-RI 8.0 mg/kg s.c. every other day, 3-day latency, 14 days of distraction; control 27.3±8.4%, p<0.038
Excerpt: For initial radiography a Xerox Micro 50 closed system radiography unit (Xerox, Pasadena, Calif.) was used at 40 kilovolts (3 mA) for 20 seconds with Kodak X-OMAT film to radiograph the specimens. For quantitation, the radiographs and histology slides are video recorded by radio camera under low power (1.25× objective) microscopic magnification and transferred into a computer (Macintosh IIx Image 1.28c). The radiographs allow for quantitation of mineralized bone within the distraction gap. The measured distraction gap area was outlined from the outside corners of the two proximal and the two distal cortices forming a quadrilateral region of interest. The mineralized new bone area in the gap was determined by outlining the regions with radiodensity equivalent to or greater than the adjacent medullary bone. Mean pixel density of the defined distraction gap was measured using NIH Image on an arbitrary 256 degree scale. […] The percentage of new mineralized bone area within the distraction gap (% new bone) was calculated by dividing mineralized bone area/gap area. (6, 7).
Twenty-four 21-month-old C57BL6 mice underwent placement of an external fixator and osteotomy to the left tibia. The surgeries were completed over a four-day period. After surgeries there were eleven mice in the control group (one died during surgery) and twelve mice in the group to be treated with sTNF-RI. […]

B1: sTNF-RI: soluble TNF receptor Type I, a TNF blocker (TNF antagonist) (protein, UniProt P19438 30-211, looked up)
extracellular domain: LVPHLGDREKRDSVCPQGKYIHPQNNSICCTKCHKGTYLYNDCPGPGQDTDCRECESGSFTASENHLRHCLSCSKCRKEMGQVEISSCTVDRDTVCGCRKNQYRHYWSENLFQCFNCSLCLNGTVHLSCQEKQNTVCTCHAGFFLRENECVSCSNCKKSLECTKLCLPQIENVKGTEDSGTT
modifications: extracellular domain
Mineralization of the DO gap, as measured histologically (% of the distraction gap) [1]: 76.1±7.5 % SEM | Mineralization of the DO gap, as measured from the radiographs (% of the distraction gap) [2]: 55.2±8.8 % SEM
